PMC5131575 (Biomaterials, 2016)

Biological target: Clathrin triskelions (bovine (purified from bovine brain), UniProt P49951 1-1675)
Test: SPR

Clathrin triskelions, sequence (P49951 whole entry): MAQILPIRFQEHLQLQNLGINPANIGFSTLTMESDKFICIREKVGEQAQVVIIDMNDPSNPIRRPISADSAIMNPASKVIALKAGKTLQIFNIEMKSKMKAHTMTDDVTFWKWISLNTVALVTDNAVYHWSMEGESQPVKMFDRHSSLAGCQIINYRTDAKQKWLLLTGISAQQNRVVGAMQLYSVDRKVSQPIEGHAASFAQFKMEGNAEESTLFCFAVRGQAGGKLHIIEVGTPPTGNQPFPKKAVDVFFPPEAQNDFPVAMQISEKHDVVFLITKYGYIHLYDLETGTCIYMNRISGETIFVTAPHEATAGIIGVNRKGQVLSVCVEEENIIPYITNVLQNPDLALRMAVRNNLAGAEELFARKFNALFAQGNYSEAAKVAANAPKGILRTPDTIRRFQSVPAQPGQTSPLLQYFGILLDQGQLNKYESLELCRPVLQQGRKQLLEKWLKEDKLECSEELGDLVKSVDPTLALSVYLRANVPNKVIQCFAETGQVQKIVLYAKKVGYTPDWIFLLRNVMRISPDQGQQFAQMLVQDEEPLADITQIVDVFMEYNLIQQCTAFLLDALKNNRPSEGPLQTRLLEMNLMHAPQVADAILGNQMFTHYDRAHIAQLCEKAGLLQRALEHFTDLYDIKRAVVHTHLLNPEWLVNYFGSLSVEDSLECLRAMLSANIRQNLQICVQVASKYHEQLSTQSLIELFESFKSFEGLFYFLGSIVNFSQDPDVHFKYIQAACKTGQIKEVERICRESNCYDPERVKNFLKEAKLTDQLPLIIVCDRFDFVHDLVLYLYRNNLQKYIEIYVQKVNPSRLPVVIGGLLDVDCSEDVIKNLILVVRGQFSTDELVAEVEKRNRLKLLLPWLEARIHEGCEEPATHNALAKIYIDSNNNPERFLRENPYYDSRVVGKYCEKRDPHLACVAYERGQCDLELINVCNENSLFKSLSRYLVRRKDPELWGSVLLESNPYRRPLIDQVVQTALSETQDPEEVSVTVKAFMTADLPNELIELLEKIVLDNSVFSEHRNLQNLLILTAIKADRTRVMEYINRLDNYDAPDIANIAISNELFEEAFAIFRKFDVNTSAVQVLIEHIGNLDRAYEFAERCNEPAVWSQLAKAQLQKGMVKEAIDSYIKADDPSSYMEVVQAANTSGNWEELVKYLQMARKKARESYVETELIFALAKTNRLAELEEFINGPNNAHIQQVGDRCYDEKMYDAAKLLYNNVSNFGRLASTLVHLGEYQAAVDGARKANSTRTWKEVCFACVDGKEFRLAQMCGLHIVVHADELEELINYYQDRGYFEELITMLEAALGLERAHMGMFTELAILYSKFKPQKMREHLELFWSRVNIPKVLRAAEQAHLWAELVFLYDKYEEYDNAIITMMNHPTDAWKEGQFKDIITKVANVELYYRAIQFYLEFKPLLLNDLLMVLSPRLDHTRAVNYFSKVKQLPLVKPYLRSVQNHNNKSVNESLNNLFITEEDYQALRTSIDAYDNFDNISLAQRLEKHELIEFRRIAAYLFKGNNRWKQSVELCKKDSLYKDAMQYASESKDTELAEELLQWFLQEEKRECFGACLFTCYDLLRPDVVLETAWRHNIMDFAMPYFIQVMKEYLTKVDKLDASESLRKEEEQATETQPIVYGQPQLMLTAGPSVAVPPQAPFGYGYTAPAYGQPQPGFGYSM

## PWDLW [GFP-Wbox]
  Kd: 3.9 µM
